Source: patent US20240252614A1 (Pfizer, published 2024)

What was measured:
PIV1046 = biological target: T1, PIV1046 (PIV1); experiment: BLI, no stress;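 note: binding of thermally stressed PIV1 F mutant supernatant to mAb on AHC biosensors for 5 min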
T1 construct: A466V, S473V
Description: (§1) All measurements were conducted at 30° C. temperature in 96-well black plates (Corning, Corning, NY) with a final volume of 240 μL per well at a constant agitation rate of 1000 RPM.
(§2) Conformation integrity of PIV1 F protein mutants were evaluated by a thermal stress experiment. Crude cell culture supernatants were normalized based on the results of the titer quantitation and then incubated for 1 hour at room temperature and two higher temperatures. For the initial testing of PIV1 mutants, the two temperatures were 50° C. and 53° C. […] Anti-Human IgG Fc Capture (AHC) biosensors were first equilibrated in PB for before being dipped into more PB to establish the initial baseline. […] The mAb-bound biosensors were then dipped into the thermal stresses cell culture supernatants for 5 minutes.

PIV1042 = biological target: T2, PIV1042 (PIV1); experiment: BLI, no stress;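 note: binding of thermally stressed PIV1 F mutant supernatant to mAb on AHC biosensors for 5 min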
T2 construct: Q92A
Description: as §1, §2

PIV1043 = biological target: T3, PIV1043 (PIV1); experiment: BLI, no stress;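 note: binding of thermally stressed PIV1 F mutant supernatant to mAb on AHC biosensors for 5 min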
T3 construct: Q92A, G134A
Description: as §1, §2

PIV1045 = biological target: T4, PIV1045 (PIV1); experiment: BLI, no stress;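 note: binding of thermally stressed PIV1 F mutant supernatant to mAb on AHC biosensors for 5 min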
T4 construct: Q92L, G134A
Description: as §1, §2

PIV1044 = biological target: T5, PIV1044 (PIV1); experiment: BLI, no stress
T5 construct: Q92L
Description: as §1, §2

[1] = biological target: T6, stabilized hPIV1 F protein trimer in pre-fusion conformation (human parainfluenza virus 1); experiment: SPR (Biacore 8K+), mAb captured on Protein A chip
T6 construct: also called preF-hPIV1; HPIV1 pre-fusion F protein
Excerpt: (§3) To avoid conformation changes of F protein while coupling to SPR sensor chip an orientation-specific binding of antibodies through constant (Fc) region was chosen to determine affinity of the newly discovered antibodies using Biacore 8K+ system (Cytiva) and corresponding InSight Software (Cytiva) for analysis. […] Unbound antibodies were washed off with 1×HBS-P buffer. […] Dissociation time was set to 600 seconds to allow for elongated fitting model. Chip was regenerated with two cycles of 4.5M MgCI2 solution. […] Affinity of antibodies were reported in molar concentrations as ratio of dissociation and association.

hMPV086 = biological target: T7, hMPV086 (hMPV A, UniProt Q6WB98 19-102); experiment: BLI, 53C stress
T7 construct: T411C-Q434C, L141C-A161C, T49I; also called hMP0086
Description: (§4) The OCTET HTX (Sartorius, Gottingen, Germany) instrument was used to evaluate the expression and conformational integrity for each mutant. All measurements were conducted at 30° C. temperature in 96-well black plates (Corning, Corning, NY) with a final volume of 240 μL per well at a constant agitation rate of 1000 RPM.
(§5) Conformation integrity of hMPV A F protein mutants were evaluated by thermal stress experiments. Crude cell culture supernatants were normalized based on the results of the titer quantitation and then incubated for 1 hour at room temperature and two higher temperatures. […] Anti-Human IgG Fc Capture (AHC) biosensors were first equilibrated in PB before being dipped into more PB to establish the initial baseline. […] The mAb-bound biosensors were then dipped into the thermal stressed cell culture supernatants for 5 minutes. The kinetics analysis was done by OCTET data analysis software (version 12.0, Sartorius) based on curve fitting of the entire associate step.

hMPV089 = biological target: T8, hMPV089 (hMPV A, UniProt Q6WB98 19-102); experiment: BLI, 53C stress
T8 construct: T411C-Q434C, L141C-A161C, S149T
Description: as §4, §5

hMPV090 = biological target: T9, hMPV090 (hMPV A, UniProt Q6WB98 19-102); experiment: BLI, 53C stress
T9 construct: T411C-Q434C, L141C-A161C, A459P, G239A, T49I, S149T, T365I
Description: as §4, §5

hMPV081 = biological target: T10, hMPV081 (hMPV A, UniProt Q6WB98 19-102); experiment: BLI, 53C stress
T10 construct: T411C-Q434C, A140C-S149C, T365I
Description: as §4, §5

hMPV A F WT Control = hMPV A F WT Control (hMPV A, UniProt Q6WB98 19-102); experiment: BLI, 53C stress
Description: as §4, §5

hMPV088 = biological target: T11, hMPV088 (hMPV A, UniProt Q6WB98 19-102); experiment: BLI, 53C stress
T11 construct: T411C-Q434C, L141C-A161C, G239A
Description: as §4, §5

hMPV097 = biological target: T12, hMPV097 (hMPV A, UniProt Q6WB98 19-102); experiment: BLI, 53C stress
T12 construct: T411C-Q434C, E146C-T160C, A459P, G239A, T49I, S149T, T365I
Description: as §4, §5

hMPV084 [2] = biological target: T13, hMPV084 (hMPV A, UniProt Q6WB98 19-102); experiment: BLI, 53C stress
T13 construct: T411C-Q434C, L141C-A161C
Description: as §4, §5

hMPV082 = biological target: T14, hMPV082 (hMPV A, UniProt Q6WB98 19-102); experiment: BLI, 53C stress
T14 construct: T411C-Q434C, A140C-S149C, G239A
Description: as §4, §5

hMPV083 = biological target: T15, hMPV083 (hMPV A, UniProt Q6WB98 19-102); experiment: BLI, 53C stress
T15 construct: T411C-Q434C, A140C-S149C, A459P, G239A, T49I, T365I
Description: as §4, §5

hMPV087 = biological target: T16, hMPV087 (hMPV A, UniProt Q6WB98 19-102); experiment: BLI, 53C stress
T16 construct: T411C-Q434C, L141C-A161C, T365I
Description: as §4, §5

hMPV079 [3] = biological target: T17, hMPV079 (hMPV A, UniProt Q6WB98 19-102); experiment: BLI, 53C stress
T17 construct: T411C-Q434C, A140C-S149C, A459P
Description: as §4, §5

hMPV078 = biological target: T18, hMPV078 (hMPV A, UniProt Q6WB98 19-102); experiment: BLI, 53C stress
T18 construct: T411C-Q434C, A140C-S149C
Description: as §4, §5

hMPV085 = biological target: T19, hMPV085 (hMPV A, UniProt Q6WB98 19-102); experiment: BLI, 53C stress
T19 construct: T411C-Q434C, L141C-A161C, A459P
Description: as §4, §5

hMPV084 [4] = biological target: T13, hMPV084; experiment: BLI, no stress
Description: as §4, §5

hMPV079 [5] = biological target: T17, hMPV079; experiment: BLI, no stress
Description: as §4, §5

[6] = biological target: T20, stabilized hMPV F protein trimer in pre-fusion conformation (human metapneumovirus); experiment: SPR (Biacore 8K+), mAb captured on Protein A chip
T20 construct: also called preF-hMPV; hMPV pre-fusion F protein
Excerpt: as §3

hMPV139 = biological target: T21, hMPV139 (hMPV B, UniProt Q6WB98 19-102); experiment: BLI, 56C stress
T21 construct: T49I, L141C-A161C, T411C-Q434C
Description: as §1
(§6) Conformation integrity of hMPV B F protein mutants were evaluated by a thermal stress experiment. Crude cell culture supernatants were normalized based on the results of the titer quantitation and then incubated for 1 hour at room temperature and two higher temperatures. For the testing of hMPV B single mutants, the two temperatures were 53° C. and 56° C. After the incubation, the protein mutants were probed with prefusion specific monoclonal antibody hMPV-2 by OCTET HTX. Anti-Human IgG Fc Capture (AHC) biosensors were first equilibrated in PB before being dipped into more PB for to establish the initial baseline. Biosensors were incubated with hMPV-2 before being equilibrated in PB to establish the experimental baseline. The mAb-bound biosensors were then dipped into the thermal stresses cell culture supernatants for 5 minutes.

hMPV132 = biological target: T22, hMPV132 (hMPV B, UniProt Q6WB98 19-102); experiment: BLI, 56C stress
T22 construct: L141C-A161C, S149T, G239A, T411C-Q434C, A459P
Description: as §1, §6

hMPV122 = biological target: T23, hMPV122 (hMPV B, UniProt Q6WB98 19-102); experiment: BLI, 56C stress
T23 construct: A140C-S149C, T411C-Q434C, A459P
Description: as §1, §6

hMPV135 = biological target: T24, hMPV135 (hMPV B, UniProt Q6WB98 19-102); experiment: BLI, 56C stress
T24 construct: T49I, S149T, A459P
Description: as §1, §6

hMPV117 = biological target: T25, hMPV117 (hMPV B, UniProt Q6WB98 19-102); experiment: BLI, 56C stress
T25 construct: T150C-R156C, A459P
Description: as §1, §6

hMPV118 = biological target: T26, hMPV118 (hMPV B, UniProt Q6WB98 19-102); experiment: BLI, 56C stress
T26 construct: T49I, T150C-R156C
Description: as §1, §6

hMPV127 = biological target: T27, hMPV127 (hMPV B, UniProt Q6WB98 19-102); experiment: BLI, 56C stress
T27 construct: A140C-S149C, G239A, T411C-Q434C, A459P
Description: as §1, §6

hMPV131 = biological target: T28, hMPV131 (hMPV B, UniProt Q6WB98 19-102); experiment: BLI, 56C stress
T28 construct: T49I, L141C-A161C, G239A, T411C-Q434C, A459P
Description: as §1, §6

B1: PIV1-8 mAb (antibody, V domains shown)
VH: QVQLVQSGAEVKKPGSSVKVSCEASGGTFSNYVISWVRQAPGQGLEWMGGIIPVFATAKYAQKFQGRVTIIADQSTNTAYLELSSLRSDDTAVYFCASVDSGGTWWDAFAIWGQGTMVTVSS
VL: QAVVTQPRSVSGSPGQAVTISCTGTSSDVGGYNYVSWYQHHPGKAPKLIIYDVTKRPSGVPDRFSGSKSGNTASLTISGLQTEYEADYYCCSYAGSYTLVFGGGTKLTVLG
notes: human IgG1; also called hPIV1-8 mAb; hPIV1-8
With B1 as the binder, how does the “Response Shift” value (PIV1046) read?
Its value is 0.584 nm.

What about the “Response Shift” value (PIV1042) of the same binder?
The value was 0.192 nm.

And the “Response Shift” value (PIV1043)?
Its value is 0.725 nm.

What about the “Response Shift” value (PIV1045) of the same binder?
Its value is 0.635 nm.

What about the “Response Shift” value (PIV1044) of the same binder?
The value was 0.162 nm.

What about the Kd [1] of the same binder?
Its Kd is 885 pM.

B2: hMPV-2 mAb (antibody, V domains shown)
VH: QVQLQQSGAEVKKPGASVKVSCKASGYTFTSYGISWVRQAPGQGLEWMGWISGYNGNTNYAQTFQGTFTMTTDTSTSTAYMELRRLRSGDTAVYYCARDRYYASGSYNGMDVWGQGTTVTVSS
VL: QSALTQPPSASGAPGQRVTVSCSGSSSNVGSSSVYWYQQLPGTAPKLLIYRNNQRPSGVPDRFSGSKSGTSASLAISGLRSEDEADYYCAAWDDSLSGWVFGGGTKLTVLG
notes: human IgG1
What does the source list for B2?
Response Shift (hMPV086): 0.746 nm; Response Shift (hMPV089): 0.801 nm; Response Shift (hMPV090): 0.815 nm; Response Shift (hMPV081): 0.778 nm; Response Shift (hMPV A F WT Control): -0.014 nm; Response Shift (hMPV088): 0.816 nm; Response Shift (hMPV097): 0.82 nm; Response Shift (hMPV084 [2]): 0.776 nm; Response Shift (hMPV082): 0.816 nm; Response Shift (hMPV083): 0.755 nm; Response Shift (hMPV087): 0.709 nm; Response Shift (hMPV079 [3]): 0.73 nm; Response Shift (hMPV078): 0.757 nm; Response Shift (hMPV085): 0.672 nm; Response Shift (hMPV084 [4]): 0.862 nm; Response Shift (hMPV079 [5]): 0.791 nm; Kd [6]: 685 pM; Response Shift (hMPV139): 0.65 nm; Response Shift (hMPV132): 0.694 nm; Response Shift (hMPV122): 0.686 nm; Response Shift (hMPV135): 0.724 nm; Response Shift (hMPV117): 0.64 nm; Response Shift (hMPV118): 0.801 nm; Response Shift (hMPV127): 0.674 nm; Response Shift (hMPV131): 0.657 nm
